# Laboratory results as given in patent publication US20180021429A1, “ANTICANCER AGENTS OR ANTIMETASTATIC AGENTS USING FSTL1 AND COMBINATION DRUG THEREOF” (PHARMA FOODS INTERNATIONAL CO., LTD., priority 2015, published 2018).
# Substitutions are numbered along the chain they refer to. Entries after “also recorded” stand apart in the source; their conditions may differ.
# B1: #13: chicken-mouse chimeric anti-FSTL1 antibody clone; variable regions SEQ ID NO: 815 (light), 817 (heavy) (antibody, V domains shown)
# VH: AVTLDESGGGLQTPGGGLSLVCKASGFTFSSVTMQWVRQAPGKGLEWVASICSGSSTYYGPAVKGRATISRDNGQNTVRLQLNNLRAEDTATYYCAKIVGRGRWSCTSAAYNIDAWGHGTEVIVSS
# VL: ASTQPSSVSANPGETVKITCSGGGNNYGWYQQKSPGSAPVTVIYNNNNRPSNIPSRFSGSKSGSTNTLTITGVQAEDEAVYYCGSYDSSSDSGIFGAGTTLTVL
# modifications: mouse constant regions
# B2: #6-55: chicken-mouse chimeric anti-FSTL1 antibody clone; variable regions SEQ ID NO: 783 (light), 785 (heavy) (antibody, V domains shown)
# VH: AVTLDESGGGLQTPGGALSLVCKGSGFTFTSVTMQWVRQAPGKGLEWVASVCSGSSTYYAPAVKGRATISRDNGQSTVRLQLSNLRPEDTGTYYCAKIAGRARWSCTSAAYNIDAWGHGTEVIVSS
# VL: ASTQPSSVSAIPGETVKITCSGGGNNYGWYQQRSPGSAPVTVIYYNDNRPSNIPSRFSGSTSGSTSTLTITGVQADDEAIYYCGSWDSNTDSGIFGAGTTLTVL
# modifications: mouse constant regions
# B3: #5-8: chicken-mouse chimeric anti-FSTL1 antibody clone; variable regions SEQ ID NO: 771 (light), 773 (heavy) (antibody, V domains shown)
# VH: AVTLDESGGGLQTPGGGLSLVCKGSGFTFSSFNMFWVRQAPGKGLEWVAGIGKDGVPKYGTAVDGRATISKDNGQSTMRLQLNNLRAEDTGTYFCAKAAGGCSYDWCGIYTGDIDTWGHGTEVIVSS
# VL: ASTQPSSVSANPGEAVKITCSGGSGSYYGWYQQKSPGSAPVTVIYNNNQRPSDIPSRFSGSKSGSTATLTITGVQAEDEAVYFCGGYDSSTGHGGIFGAGTTLTVL
# modifications: mouse constant regions
# B4: #8-1: chicken-mouse chimeric anti-FSTL1 antibody clone; variable regions SEQ ID NO: 791 (light), 793 (heavy) (antibody, V domains shown)
# VH: B3 VH with G17A, T61A, T111A
# VL: B3 VL with T91S
# modifications: mouse constant regions
# B5: #8-4: chicken-mouse chimeric anti-FSTL1 antibody clone; variable regions SEQ ID NO: 795 (light), 797 (heavy) (antibody, V domains shown)
# VH: AVTLDESGGGLQTPGGGLSLVCKGSGFTLSSFNMFWVRQAPGKGLEWVAGVGKDGGTAYGAAVDGRATISRDSGQSTVRLQLNNLRAEDTGTYFCAKAAGGCSYSWCGAYVGDLDAWGHGTEVIVSS
# VL: ASSQPSSVSANPGETVKITCSGGSGYYYGWYQQKSPGSAPVTVIYNNDNKPSDIPSRFSGSKSGSTGTLTITGVQVEDEAVYFCGGYDNSGTGIFGAGTTLTVL
# modifications: mouse constant regions
# B6: #33: chicken-mouse chimeric anti-FSTL1 antibody clone; variable regions SEQ ID NO: 823 (light), 825 (heavy) (antibody, V domains shown)
# VH: AVTLDESGGGLQTPGGGLSLVCKASGFTFSSFNMNWVRQAPGKGLEYVAEISGTGSSTYYGSAVKGRATISRDNGQSTVRLQLNNLRAEDTATYFCARGDGAYSIDAWGHGTEVIVSS
# VL: ASTQPSSVSANPGETVEITCSGDSSYYGWFQQKSPGSAPVTVIYDNTNRPSDIPSRFSGSKSGSTATLTITGVRAEDEAVYYCGGYDSSTYDGIFGAGTTLTVL
# modifications: mouse constant regions
# Tests used:
# [1] = test system: induction of MSCs, cancer-associated MSCs, and M-MDSCs by FSTL1; test: Inhibitory activity against induction of MSC, cancer-associated MSC and MDSC by FSTL1 (Examples 13-15); assay type: cell-based, mouse
# Protocol: Mouse bone marrow cells prepared in the same way as in Example 4 were supplemented with 20 ng/mL (final concentration) of FSTL1 and 10 μg/mL of the anti-FSTL1 antibody (#6-55, #7-34, #8-1, or #8-4), an anti-PD-L1 antibody reported to have an immunosuppression-mitigating effect, or a control antibody anti-DNP antibody and cultured under stimulation. 8 days thereafter, the number of cells was counted while the cells were stained with a PE-Cy5-labeled anti-CD45 antibody, a PE-labeled anti-ALCAM antibody, a FITC-labeled anti-CD271 antibody (Abcam plc, Cat. No. AB62122), a FITC-labeled anti-CD11b antibody (BD Pharmingen/Becton, Dickinson and Company, Cat. No. 553310), and a PE-Cy5-labeled anti-Gr1 antibody (eBioscience, Cat. No. 15-5931) in order to detect MSCs (CD45-negative cells), cancer-associated MSCs (CD45-negative, ALCAM-positive, and CD271-positive cells) which are MSCs increasing in number in association with cancer metastasis, and monocytic myeloid-derived suppressor cells (M-MDSCs: CD11b-positive, Gr1-positive, and ALCAM-positive cells) increasing in number together with cancer-associated MSCs, and the contents of the cells mentioned above were analyzed by flow cytometry using FACScan to calculate the percentage and number of MSCs per culture (FIG. 8). […] PD-L1 is expressed in MSC and presumably influences the induction of MSCs.
# The antibody clone (#6-55, #7, #10, #13, or […]) was evaluated for its activity by the same testing method as in Example 13. #6-55 was set as a positive control for activity. […] Mouse bone marrow cells were supplemented with FSTL1 and the predetermined concentration of each antibody and cultured for 8 days. 5×10^4 cells/well were separated from each culture system and evaluated for the ability to differentiate into adipocytes using an adipocyte differentiation reagent included in “Mesenchymal Stem Cell Functional Identification Kit (R&D Systems, Inc., Cat. No. SC010)”. For the evaluation method, the cells were supplemented with the adipocyte differentiation reagent and cultured for 8 days. Then, adipocytes per culture system were counted under a microscope for evaluation. In the graph, none is depicted in the leftmost bar, and the control antibody is depicted in the second bar from the left followed by the anti-FSLT1 antibody clones. […]
# Mouse bone marrow cells (bone marrow cells prepared in the same way as in Example 4) were supplemented with 20 ng/mL (final concentration) of FSTL1 and 20.0, 10.0, 5.0, or 2.5 μg/ml (final concentration) of the rat anti-FSTL1 antibody or #6-55. […] The cells were cultured for 8 days, and the inhibitory activity of each antibody against the induction of MSCs, cancer-associated MSCs, and M-MDSCs by FSTL1 was evaluated in the same way as in Example 13 (FIG. 10A). […]
# [2] = target: T1, FSTL1 (Homo sapiens, UniProt Q12841); test: Affinity of mouse chimeric antibodies, Biacore T-200 (Example 33); assay type: binding
# T1 sequence (Q12841 21-308): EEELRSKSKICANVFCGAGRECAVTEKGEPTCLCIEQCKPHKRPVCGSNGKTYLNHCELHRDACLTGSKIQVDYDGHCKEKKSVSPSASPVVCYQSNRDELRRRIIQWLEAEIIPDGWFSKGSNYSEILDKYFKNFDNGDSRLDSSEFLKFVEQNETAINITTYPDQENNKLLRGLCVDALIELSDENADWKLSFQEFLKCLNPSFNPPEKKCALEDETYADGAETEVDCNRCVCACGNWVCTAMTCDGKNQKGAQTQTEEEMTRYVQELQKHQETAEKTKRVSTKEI
# Protocol: The mouse chimeric antibodies were immobilized onto Sensor Chip CM5 (GE Healthcare Japan Corp., BR-1005-30) using Mouse Antibody Capture Kit (GE Healthcare Japan Corp., BR-1008-38), and their affinity for human FSTL1 was calculated using Biacore T-200 (GE Healthcare Japan Corp.).
# First, the exhaustive activity comparison of the obtained antibodies was conducted with the human FSTL1 concentration fixed to 10 μg/ml (Table 33-1, FIG. 28).
# Next, the KD values of clone #6-55, #7-34, and #13 presumed to have high affinity in FIG. 28 were calculated with the antigen concentration adjusted to 0 to 20 μg/ml (Table 35-2).
# [3] = target: T2, mouse FSTL1 (Mus musculus, UniProt Q62356); test: ELISA binding activity of purified antibody against mouse FSTL1
# T2 construct: AAA linker + 10xHis (C); made in house; host or cells: Expi293 (transient expression; purified from culture supernatant on HisPur Cobalt Resin)
# T2 sequence (Q62356 with tags, fused parts or gaps): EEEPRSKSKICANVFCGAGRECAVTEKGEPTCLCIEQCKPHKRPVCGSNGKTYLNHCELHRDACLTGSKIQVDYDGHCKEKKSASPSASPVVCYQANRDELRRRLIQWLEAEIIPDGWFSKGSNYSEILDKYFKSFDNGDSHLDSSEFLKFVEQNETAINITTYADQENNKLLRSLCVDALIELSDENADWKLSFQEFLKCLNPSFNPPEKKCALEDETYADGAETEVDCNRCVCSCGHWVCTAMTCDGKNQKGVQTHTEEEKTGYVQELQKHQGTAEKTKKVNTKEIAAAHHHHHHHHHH
# Protocol: The reactivity of the obtained antibody clones described above with FSTL1 was evaluated by ELISA under the following conditions.
# (Table 2 ELISA Conditions for Binding Activity Evaluation of Purified Antibody)
# Antibodies used: anti-dinitrophenyl (DNP) antibody (negative control), #5-2, #5-3, #5-8, #5-10, #5-43, #6-55, and #7-34
# FIGS. 96 and 97 show results of evaluating binding activity under the condition of Table 3 as to clones differing in screening and antibody purification timings.
# (Table 3 ELISA Conditions for Binding Activity Evaluation of Purified Antibody)
# [4] = Example 14, FIG. 9A/39A, #6-55 as positive control
# [5] = ELISA Table 3 conditions, FIG. 97B
Molecule,"inhibitory activity against the induction of MSCs, cancer-associated MSCs, and M-MDSCs by FSTL1 [1, 4]",affinity in surface plasmon resonance assay [2],"binding activity against mouse FSTL1 [3, 5]",also measured
B1,inhibitory activity equivalent to or higher than that of the positive control (#6-55); also recorded: inhibitory activity equivalent to or higher than that of the positive control (16-55),strong affinity,,
B2,,strong affinity,,"dose dependence ([1]; Example 15, FIG. 10A/40A, 2.5-20.0 μg/ml): No dose-dependent effect was confirmed; also recorded: dose dependence was not confirmed; inhibitory activity against the induction of MSCs, cancer-associated MSCs, and M-MDSCs by FSTL1 ([1]; Example 15, FIG. 10A/40A, FSTL1 20 ng/mL, antibody 20.0, 10.0, 5.0, 2.5 μg/ml, 8 days): slightly superior; also recorded: at the same level; binding activity against mouse FSTL1 ([3]; ELISA, FIG. 95B): specific and equivalently strong binding activity"
B3,,,no binding activity,
B4,,,very slightly exhibited binding activity,
B5,,,no binding activity,
B6,inhibitory activity equivalent to or higher than that of the positive control (#6-55); also recorded: inhibitory activity equivalent to or higher than that of the positive control (16-55),strong affinity,,
